{"source": "paper PMC4358968", "about": "“Lipid-Free Antigen B Subunits from Echinococcus granulosus: Oligomerization, Ligand Binding, and Membrane Interaction Properties” (PLoS Neglected Tropical Diseases, 2015)", "key": {"[1]": {"target": "recombinant EgAgB8/2 subunit of Echinococcus granulosus antigen B (Echinococcus granulosus)", "experiment": "SEC; 100 uL of lipid-free EgAgB8/2 (324 uM) or EgAgB8/3 (320 uM) loaded separately on Superdex 200 HR 10/30 in PBS, 0.5 mL/min; apparent molecular weight against BSA, carbonic anhydrase and cytochrome c"}, "[2]": {"target": "recombinant EgAgB8/3 subunit of Echinococcus granulosus antigen B (Echinococcus granulosus)", "experiment": "SEC; 100 uL of lipid-free EgAgB8/2 (324 uM) or EgAgB8/3 (320 uM) loaded separately on Superdex 200 HR 10/30 in PBS, 0.5 mL/min; apparent molecular weight against BSA, carbonic anhydrase and cytochrome c"}, "[3]": {"target": "T1, EgAgB8/3 (antigen B subunit 3)", "T1 construct": "gene EgAgB3; recombinant lipid-free (RP-HPLC delipidated) EgAgB8/3 mature subunit, GST fusion cleaved with thrombin; GenBank AAK64236", "experiment": "fluorimetric titration of 12-AS (direct probe binding, TBS)", "parameters": "species or system Echinococcus granulosus"}, "[4]": {"target": "T2, EgAgB8/2 (antigen B subunit 2) (Echinococcus granulosus, UniProt Q27275)", "T2 construct": "gene AgB2; recombinant lipid-free (RP-HPLC delipidated) EgAgB8/2 mature subunit, GST fusion cleaved with thrombin; GenBank AAC47169", "experiment": "fluorimetric titration of 12-AS (direct probe binding, […]°C, TBS)"}}}
{"compound": "recombinant EgAgB8/2 subunit of Echinococcus granulosus antigen B (natural protein)", "values": [{"measurement": "stoichiometry N", "setting": "[1]", "result": "7 to 8", "unit": "subunits"}]}
{"compound": "recombinant EgAgB8/3 subunit of Echinococcus granulosus antigen B (natural protein)", "values": [{"measurement": "stoichiometry N", "setting": "[2]", "result": "4 to 5", "unit": "subunits"}]}
{"compound": "CCCCCCC(CCCCCCCCCCC(=O)O)OC(=O)c1c2ccccc2cc2ccccc12", "note": "(stereo not shown) [12-AS, 12-(9-anthroyloxy) stearic acid]", "values": [{"measurement": "Kd", "setting": "[3]", "result": "340 ± 20", "unit": "nM"}, {"measurement": "Kd", "setting": "[4]", "result": "160 ± 90", "unit": "nM"}]}
